Reference: PMC4230329 (Biochemistry, 2014)

B1: Grafted FtsH-S6 ATPase, His6x-tagged (wild-type) (other)
chain: MLTEDQIKTTFADVAGCDEAKEEVAELVEYLREPSRFQKLGGKIPKGVLMVGPPGTGKTLLAKAIAGEAKVPFFTISGSDFVEMFVGVGASRVRDMFEQAKKAAPCIIFIDEIDAVGRQRGAGLGGGHDEREQTLNQMLVEMDGFEGNEGIIVIAATNRPDVLDPALLRPGRFDRQVVVGLPDRRQKRLIFSTITSKMNLSEEVDLEDYVARPDKISGADINSICQESGMLAVRENRYIVLAKDFEKAYKTVIKKDEQEHEFYK
B2: gankyrin-His6x (wild-type gankyrin) (natural protein)
chain: MEGCVSNLMVCNLAYSGKLEELKESILADKSLATRTDQDSRTALHWACSAGHTEIVEFLLQLGVPVNDKDDAGWSPLHIAASAGRDEIVKALLGKGAQVNAVNQNGCTPLHYAASKNRHEIAVMLLEGGANPDAKDHYEATAMHRAAAKGNLKMIHILLYYKASTNIQDTEGNTPLHLACDEERVEEAKLLVSQGASIYIENKEEKTPLQVAKGGLGLILKR
B3: gankyrin-His6x R41A (natural protein)
chain: MEGCVSNLMVCNLAYSGKLEELKESILADKSLATRTDQDSATALHWACSAGHTEIVEFLLQLGVPVNDKDDAGWSPLHIAASAGRDEIVKALLGKGAQVNAVNQNGCTPLHYAASKNRHEIAVMLLEGGANPDAKDHYEATAMHRAAAKGNLKMIHILLYYKASTNIQDTEGNTPLHLACDEERVEEAKLLVSQGASIYIENKEEKTPLQVAKGGLGLILKR
B4: gankyrin-His6x D39A/D71A (natural protein)
chain: MEGCVSNLMVCNLAYSGKLEELKESILADKSLATRTDQASRTALHWACSAGHTEIVEFLLQLGVPVNDKDAAGWSPLHIAASAGRDEIVKALLGKGAQVNAVNQNGCTPLHYAASKNRHEIAVMLLEGGANPDAKDHYEATAMHRAAAKGNLKMIHILLYYKASTNIQDTEGNTPLHLACDEERVEEAKLLVSQGASIYIENKEEKTPLQVAKGGLGLILKR
B5: gankyrin K116A (natural protein)
chain: MEGCVSNLMVCNLAYSGKLEELKESILADKSLATRTDQDSRTALHWACSAGHTEIVEFLLQLGVPVNDKDDAGWSPLHIAASAGRDEIVKALLGKGAQVNAVNQNGCTPLHYAASANRHEIAVMLLEGGANPDAKDHYEATAMHRAAAKGNLKMIHILLYYKASTNIQDTEGNTPLHLACDEERVEEAKLLVSQGASIYIENKEEKTPLQVAKGGLGLILKR
B6: gankyrin E182A (natural protein)
chain: MEGCVSNLMVCNLAYSGKLEELKESILADKSLATRTDQDSRTALHWACSAGHTEIVEFLLQLGVPVNDKDDAGWSPLHIAASAGRDEIVKALLGKGAQVNAVNQNGCTPLHYAASKNRHEIAVMLLEGGANPDAKDHYEATAMHRAAAKGNLKMIHILLYYKASTNIQDTEGNTPLHLACDAERVEEAKLLVSQGASIYIENKEEKTPLQVAKGGLGLILKR
B7: gankyrin-His6x R41A/K116A (natural protein)
chain: MEGCVSNLMVCNLAYSGKLEELKESILADKSLATRTDQDSATALHWACSAGHTEIVEFLLQLGVPVNDKDDAGWSPLHIAASAGRDEIVKALLGKGAQVNAVNQNGCTPLHYAASANRHEIAVMLLEGGANPDAKDHYEATAMHRAAAKGNLKMIHILLYYKASTNIQDTEGNTPLHLACDEERVEEAKLLVSQGASIYIENKEEKTPLQVAKGGLGLILKR

Assays:
Experiment in all cases: ITC
gankyrin-His6x D39A/D71A = biological target: B4
[1] = biological target: B2
gankyrin K116A = biological target: B5
gankyrin E182A = biological target: B6
gankyrin-His6x R41A = biological target: B3
[2] = biological target: B7
[3] = biological target: FtsH-S6 ATPase E356A/E357A (ITC protein) (Escherichia coli | , E356A | E357A)
[4] = biological target: FtsH-S6 ATPase K397E (ITC protein) (Escherichia coli | , UniProt P43686 337-418, K397E)
[5] = biological target: FtsH-S6 ATPase R342A (ITC protein) (Escherichia coli | , UniProt P43686 337-418, R342A)
[6] = biological target: FtsH-S6 ATPase R338A/R342A (ITC protein) (Escherichia coli | , UniProt P43686 337-418, R338A | R342A)
[7] = biological target: B1
[8] = biological target: FtsH-S6 ATPase R338A/R339A/R342A (ITC protein) (Escherichia coli | , UniProt P43686 337-418, R338A | R339A | R342A)

Binder: B1
Kd (gankyrin-His6x D39A/D71A): 93 nM
Kd [1]: 67.3 nM
Kd (gankyrin K116A): 71.3 nM
Kd (gankyrin E182A): 141 nM
Kd (gankyrin-His6x R41A): 313 nM
Kd [2]: 3630 nM

Binder: B2
Kd [3]: 71.8 nM
dH [3]: -27.3 kcal/mol
Kd [4]: 95.2 nM
dH [4]: -25.6 kcal/mol
Kd [5]: 217 nM
dH [5]: -22 kcal/mol
Kd [6]: 2550 nM
dH [6]: -6.1 kcal/mol
dH [7]: -28.7 kcal/mol
Kd [8]: 7470 nM
dH [8]: -2.2 kcal/mol

Binder: B3
dH [7]: -17.1 kcal/mol

Binder: B4
dH [7]: -25 kcal/mol

Binder: B5
dH [7]: -24 kcal/mol

Binder: B6
dH [7]: -28.2 kcal/mol

Binder: B7
dH [7]: -4.9 kcal/mol
